The experiment deals with GST-α-synuclein, P37840. The experiment is described as follows: GST pull-down (glutathione agarose), western blot, ImageJ quantification. As to conditions: chain shown with the change; E. coli lysates, in vitro; parent: est. 1.0; read off a plot.

Positions count from the first letter of the chain named. Numbers in names are those of the source.

B1: His6-DNAJB11 WT, Q9UBS4 T188A (protein)
chain: GRDFYKILGVPRSASIKDIKKAYRKLALQLHPDRNPDDPQAQEKFQDLGAAYEVLSDSEKRKQYDTYGEEGLKDGHQSSHGDIFSHFFGDFGFMFGGTPRQQDRNIPRGSDIIVDLEVTLEEVYAGNFVEVVRNKPVARQAPGKRKCNCRQEMRTTQLGPGRFQMAQEVVCDECPNVKLVNEERTLEVEIEPGVRDGMEYPFIGEGEPHVDGEPGDLRFRIKVVKHPIFERRGDDLYTNVTISLVESLVGFEMDITHLDGHKVHISRDKITRPGAKLWKKGEGLPNFDNNNIKGSLIITFDVDFPKEQLTEEAREGIKQLLKQGSVQKVYNGLQGY
Take B1: the ratio to parent was 0.8.

B2: His6-DNAJB11 WT, Q9UBS4 T188E (protein)
chain: B1 chain with A166E
On to B2, for which the ratio to parent stood at 4.9.
